Test results as given in PMC7409020, “Tumor-Targeting Peptides: The Functional Screen of Glioblastoma Homing Peptides to the Target Protein FABP3 (MDGI)” (Cancers, 2020).

Target: A-CooP
Assay: SPR; Biacore T100; A-CooP immobilised on a CM5 chip (FC-4) by amine coupling, scrambled control peptide on the reference flow cell (FC-3); FABP3 as analyte 0.5-32 µM; 25 °C; PBS with 0.05% Tween-20, pH 7.4; steady state affinity fit of reference-subtracted sensorgrams; mean of three experiments

Kd: 16.7 µM
Substance: recombinant N-terminal His6-tagged human FABP3 (natural protein)
